For assay [1], the target named is T1, Soluble hFcγRIIB (R & D Systems) (human, UniProt P31994 46-217).
T1 construct: Bought reagent; also called hFcγRIIB fusion protein
T1 sequence (looked up): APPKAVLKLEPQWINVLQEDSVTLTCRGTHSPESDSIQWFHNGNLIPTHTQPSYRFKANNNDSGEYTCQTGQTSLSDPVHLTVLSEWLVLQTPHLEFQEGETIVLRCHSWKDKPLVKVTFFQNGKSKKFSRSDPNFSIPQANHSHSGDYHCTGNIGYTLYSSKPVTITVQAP
Put plainly: SPR, mAb immobilised, soluble hFcγRIIB injected; column headed KD (1/s). How it is done: (§1) A BIAcore T100 analyzer (GE Healthcare, UK) was used to determine the binding affinity of the hFcγRIIB mAb, as described elsewhere.²⁵ mAb were immobilized onto a CM5 sensorchip (GE Healthcare, UK), using standard amine coupling according to the manufacturer's instructions. Soluble hFcγRIIB (0.16-100 nM; R & D Systems, UK) was injected for 5 minutes and dissociation monitored for 10 minutes. Background binding to the control flow cell was monitored and subtracted automatically. The KD values were calculated from the 1:1 binding model using the BIAcore T100 Evaluation software.
For orientation: SPR reads the build-up and loss of mass on a sensor chip optically.

Assay [2] addresses T2, cynomolgus monkey FcγRIIB (cynomolgus monkey, UniProt A0A140HDP4 43-312).
T2 construct: whole, on cells; also called FcγRIIB in other species
T2 sequence: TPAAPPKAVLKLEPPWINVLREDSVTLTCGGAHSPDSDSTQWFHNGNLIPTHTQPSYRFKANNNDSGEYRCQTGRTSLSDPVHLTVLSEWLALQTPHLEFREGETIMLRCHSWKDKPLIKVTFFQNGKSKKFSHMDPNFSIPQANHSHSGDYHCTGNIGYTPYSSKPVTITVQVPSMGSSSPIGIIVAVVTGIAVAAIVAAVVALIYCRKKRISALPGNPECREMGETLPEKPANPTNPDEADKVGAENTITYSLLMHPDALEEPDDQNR
Put plainly: IHC on frozen tissue sections.

The target in a further assay is T3, rat FcγRIIB (rat, UniProt A0A0G2K9R6 42-295).
T3 construct: also called FcγRIIB in other species
T3 sequence: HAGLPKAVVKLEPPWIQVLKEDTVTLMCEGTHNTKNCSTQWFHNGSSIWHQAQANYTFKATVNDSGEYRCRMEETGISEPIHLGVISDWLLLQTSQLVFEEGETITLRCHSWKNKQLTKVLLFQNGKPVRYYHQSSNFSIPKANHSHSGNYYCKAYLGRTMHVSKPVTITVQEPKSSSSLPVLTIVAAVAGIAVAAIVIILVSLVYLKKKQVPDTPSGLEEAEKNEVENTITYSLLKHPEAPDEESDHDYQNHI
Put plainly: IHC on frozen tissue sections.

A further assay has as its target T4, mouse FcγRIIB (mouse, UniProt P08101 30-330).
T4 construct: whole, on cells; also called mFcγRII; FcγRIIB in other species
T4 sequence (looked up): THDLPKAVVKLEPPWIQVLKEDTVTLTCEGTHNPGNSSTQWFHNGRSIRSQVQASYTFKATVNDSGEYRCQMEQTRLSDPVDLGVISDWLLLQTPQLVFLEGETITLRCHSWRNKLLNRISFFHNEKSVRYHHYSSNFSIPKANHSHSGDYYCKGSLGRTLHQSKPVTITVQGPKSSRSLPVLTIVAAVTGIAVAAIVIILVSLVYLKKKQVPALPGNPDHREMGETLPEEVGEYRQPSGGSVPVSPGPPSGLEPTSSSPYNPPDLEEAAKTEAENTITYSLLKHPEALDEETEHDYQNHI
Briefly: IHC on frozen tissue sections.

For assay [3], the target named is T1, Soluble hFcγRIIB (R & D Systems). Briefly: SPR (Biacore T100), mAb immobilised on CM5, soluble hFcγRIIB injected, 1:1 model; column headed KA (1/MS). The procedure:
as §1

Assay [4] shares this target. Briefly: SPR (Biacore T100), mAb immobilised on CM5, soluble hFcγRIIB injected, 1:1 model. The procedure: as §1
The target is the same in assay [5]. Put plainly: SPR (Biacore T100), mAb immobilised on CM5, soluble hFcγRIIB injected, 1:1 model; column headed KD (1/s). How it is done: as §1
For assay [6] the target is unchanged. Briefly: SPR, mAb immobilised, soluble hFcγRIIB injected; column headed KA (1/MS). The procedure:
as §1

The target is the same in assay [7]. Put plainly: SPR, mAb immobilised, soluble hFcγRIIB injected. The procedure:
as §1

The target in assay [8] is T5, human FcγRIIB on cells (human, UniProt P31994 43-310).
T5 construct: whole, on cells; also called hFcγRIIB; CD32B
T5 sequence (looked up): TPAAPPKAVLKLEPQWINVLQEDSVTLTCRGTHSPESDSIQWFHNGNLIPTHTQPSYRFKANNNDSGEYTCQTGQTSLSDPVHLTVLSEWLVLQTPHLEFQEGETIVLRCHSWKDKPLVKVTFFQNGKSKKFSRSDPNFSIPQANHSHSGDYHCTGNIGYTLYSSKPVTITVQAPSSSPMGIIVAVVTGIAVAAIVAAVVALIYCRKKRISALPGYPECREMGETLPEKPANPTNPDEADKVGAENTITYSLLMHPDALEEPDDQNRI
Put plainly: inhibition of binding of IC to hFcγRIIB-transfected cells by the mAb [2/2) bottom].

The target in assay [9] is T5, human FcγRIIB on cells. Put plainly: binding to hFcγRIIB-transfected cells, total fluorescence intensity against mAb concentration [2/2) bottom].
For assay [10], the target named is T1, Soluble hFcγRIIB (R & D Systems). Put plainly: SPR, mAb immobilised, soluble hFcγRIIB injected; column headed KD (1/s); Table 2 gives the same values for 6G08. How it is done:
as §1

The target in assay [11] is T6, human FcγRIIA on cells (human, UniProt P12318 34-317).
T6 construct: whole, on cells; also called hFcγRIIA; FcγRIIA^+ve CHO
T6 sequence (looked up): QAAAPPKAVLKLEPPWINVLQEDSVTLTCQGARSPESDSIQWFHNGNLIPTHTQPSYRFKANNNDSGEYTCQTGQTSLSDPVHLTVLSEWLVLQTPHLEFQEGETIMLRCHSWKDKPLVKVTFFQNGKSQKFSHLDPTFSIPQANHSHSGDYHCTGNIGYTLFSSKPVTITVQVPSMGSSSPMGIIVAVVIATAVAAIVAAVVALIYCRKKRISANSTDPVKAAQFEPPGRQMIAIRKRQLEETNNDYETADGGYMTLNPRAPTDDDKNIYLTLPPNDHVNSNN
Briefly: binding to FcγRIIA-transfected CHO-k1 cells.

Assay [12] concerns the target T1, Soluble hFcγRIIB (R & D Systems). Briefly: SPR, mAb immobilised, soluble hFcγRIIB injected; Table 2 gives the same values for 6G08. The procedure:
as §1

Assay [13] deals with T6, human FcγRIIA on cells. Put plainly: binding to FcγRIIA-transfected CHO-k1 cells. The source holds these as a separate data set.
Assay [14] deals with T6, human FcγRIIA on cells. Put plainly: flow cytometry on human PBMC populations, MFI; monocytes and neutrophils read as hFcγRIIA-bearing as in the legend. (In general: In flow cytometry, cells or beads pass a laser one at a time.)
In assay [15] the target is T6, human FcγRIIA on cells. Briefly: not specified (summary in the discussion).

Consider six molecules from US20170107293A1 (BIOINVENT INTERNATIONAL, published 2017).

The term koff denotes the rate constant with which the complex falls apart. Broadly, the kon is a measure of how fast the partners come together. The Kd is the concentration at which binding is half-saturated. For orientation: EC50 (read off the curve) means the concentration at which the effect is half-maximal.

B1: 7C07 (antibody, human IgG1, V domains shown)
VH: EVQLLESGGGLVQPGGSLRLSCAASGFTFSSYGMHWVRQAPGKGLEWVAVISYDGSNKYYADSVKGRFTISRDNSQNTLYLQMNSLRAEDTAVYYCAREFGYIILDYWGQGTLVTVSS
VL: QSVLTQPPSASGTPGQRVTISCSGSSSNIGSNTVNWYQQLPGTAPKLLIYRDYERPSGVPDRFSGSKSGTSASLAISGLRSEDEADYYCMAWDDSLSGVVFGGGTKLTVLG
notes: Antagonistic hFcγRIIB mAb, human IgG1 (WT); Only VH/VL tied to the clone; also called Antibody clone: 7C07
With B1, the koff in [1] and in [5] was 0.0185 s⁻¹ in each case. The binding result (in [2]; with rat FcγRIIB; with mouse FcγRIIB) was “no binding” throughout. In addition, the kon in assay [3] and in [6] was 913000 M⁻¹ s⁻¹ in each case. Further, the dissociation constant Kd in [4] and in [7] was 23.9 nM in each case.

B2: 5C04 (antibody, human IgG1, V domains shown)
VH: EVQLLESGGGLVQPGGSLRLSCAASGFTFSNYGMHWVRQAPGKGLEWVAVISYDGSNKYYADSVKGRFTISRDNSKNTLYLQMNSLRAEDTAVYYCAREWRDAFDIWGQGTLVTVSS
VL: QSVLTQPPSASGTPGQRVTISCTGSSSNIGAGYDVHWYQQLPGTAPKLLIYSDNQRPSGVPDRFSGSKSGTSASLAISGLRSEDEADYYCAAWDDSLSGSWVFGGGTKLTVLG
notes: hFcγRIIB mAb, human IgG1 (WT); Only VH/VL tied to the clone; also called Antibody clone: 5C04
Turning to B2, the “IC50 (read off the curve)” value in the assay with human FcγRIIB on cells [8] was roughly 0.6 nM. Besides, the koff in [1] and in assay [5] was 0.0481 s⁻¹ in each case. For the same molecule, in the assay with human FcγRIIB on cells [9], the “EC50 (read off the curve)” value was roughly 0.4 nM. Moreover, the kon in [3] and in [6] was 324000 M⁻¹ s⁻¹ each time. In addition, the Kd in assay [4] and in [7] was 142 nM in each case.

B3: 5G08 (antibody, human IgG1, V domains shown)
VH: EVQLLESGGGLVQPGGSLRLSCAASGFTFNNYGMHWVRQAPGKGLEWVAVISYDGSNRYYADSVKGRFTMSRDNSKNTLYLQMNSLRAEDTAVYYCARDRWNGMDVWGQGTLVTVSS
VL: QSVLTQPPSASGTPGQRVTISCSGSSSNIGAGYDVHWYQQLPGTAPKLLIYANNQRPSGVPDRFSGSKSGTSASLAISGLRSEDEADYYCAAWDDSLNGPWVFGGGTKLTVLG
notes: hFcγRIIB mAb, human IgG1 (WT); Only VH/VL tied to the clone; also called Antibody clone: 5G08
In assay [10], B3 returned a koff of 0.337 s⁻¹. Further, the binding result with human FcγRIIA on cells [11] is reported as “no binding”. In [12], this molecule registered a Kd of 713 nM.

B4: 5C05 (antibody, human IgG1, V domains shown)
VH: EVQLLESGGGLVQPGGSLRLSCAASGFTFSTYGMHWVRQAPGKGLEWVAVISYDGSNKYYADSVKGRFTISRDNSKNTLYLQMNSLRAEDTAVYYCARENFDAFDVWGQGTLVTVSS
VL: QSVLTQPPSASGTPGQRVTISCTGSSSNIGAGYDVHWYQQLPGTAPKLLIYSNSQRPSGVPDRFSGSKSGTSASLAISGLRSEDEADYYCAAWDDSLNGQVVFGGGTKLTVLG
notes: hFcγRIIB mAb, human IgG1 (WT); Only VH/VL tied to the clone; also called Antibody clone: 5C05
For the molecule B4, the binding result with human FcγRIIA on cells [13] is “no binding”. The koff in assay [1] and in assay [5] was 0.00177 s⁻¹ each time. Also, the kon in assay [3] and in [6] was 802 M⁻¹ s⁻¹ each time. The Kd in assay [4] and in [7] was 2210 nM in each case.

B5: 6A09 (antibody, human IgG1, V domains shown)
VH: EVQLLESGGGLVQPGGSLRLSCAASGFTFSSYGMHWVRQAPGKGLEWVAVTSYDGNTKYYANSVKGRFTISRDNSKNTLYLQMNSLRAEDTAVYYCAREDCGGDCFDYWGQGTLVTVSS
VL: QSVLTQPPSASGTPGQRVTISCTGSSSNIGAGYDVHWYQQLPGTAPKLLIYGNSNRPSGVPDRFSGSKSGTSASLAISGLRSEDEADYYCAAWDDSLNEGVFGGGTKLTVLG
notes: hFcγRIIB mAb said to be likely dual-specific for hFcγRIIA and B; human IgG1 (WT); Only VH/VL tied to the clone; also called Antibody clone: 6A09
As to B5, the binding result with human FcγRIIA on cells [14] is “binds”.

B6: 6G11 (antibody, human IgG1, V domains shown)
VH: EVQLLESGGGLVQPGGSLRLSCAASGFTFSSYGMHWVRQAPGKGLEWMAVISYDGSNKYYADSVKGRFTISRDNSKNTLYLQMNSLRAEDTAVYYCARELYDAFDIWGQGTLVTVSS
VL: QSVLTQPPSASGTPGQRVTISCTGSSSNIGAGYDVHWYQQLPGTAPKLLIYADDHRPSGVPDRFSGSKSGTSASLAISGLRSEDEADYYCASWDDSQRAVIFGGGTKLTVLG
notes: Lead antagonistic hFcγRIIB mAb, human IgG1 (WT); Only VH/VL tied to the clone; also called Antibody clone: 6G11; WT 6G11
Take B6: the koff in assay [1] and in assay [5] was 0.182 s⁻¹ in each case. For the same molecule, the binding result (in [2]; with rat FcγRIIB; in the assay with mouse FcγRIIB; in the assay with human FcγRIIA on cells [15]) was “no binding” throughout. In addition, the kon in assay [3] and in [6] was 6.9e+06 M⁻¹ s⁻¹ throughout. For the same molecule, the Kd in assay [4] and in assay [7] was 26.4 nM throughout.
